Test results published in US20260083859A1, “SUSTAINED TRANSGENE EXPRESSION OF MODIFIED ERT2 PEPTIDE-SUICIDE PROTEIN FUSION POLYPEPTIDES” (Senti Biosciences, Inc., priority 2023, published 2026).
Residue numbers refer to the chain shown, from its start. “Also recorded” adds a separate entry of the source.

Experiments:
[1] = tested on: PSC-derived myeloid progenitor cells; experiment: TamCasp9 Safety Switch activation in PSC-derived myeloid progenitor cells, AOPI staining, Incucyte SX5; assay type: cell-based, human; conditions: for apoptosis in unedited cells: unedited differentiated myeloid progenitors, combination 4-OHT and Endoxifen treatment
Protocol: A hPSC line engineered with TamCasp9 Construct 1 and an unedited parental control hPSC line were differentiated into myeloid progenitor cells through the addition of various growth factors and small molecules. Differentiated cells were plated at 1×10^5 cells/cm^2 in an ultra-low attachment cell culture plate for further myeloid cell maturation. After 7 days in maturation medium, cells were collected and frozen down.
For testing of TamCasp9 Safety Switch activation, myeloid cells were plated at 1.5×10^5 cells/cm^2 in a 96-well tissue culture plate with a 1:750 dilution of ViaStain AOPI Staining Solution (Nexcelom) in X-VIVO 15 Medium with 10 ng/mL GM-CSF. The kill switch was induced with 0, 1, 10 or 100 uM of Endoxifen over 3 days and images were collected every 6 hours on the Incucyte SX5 (Sartorius).
To better model predicted drug concentrations in a patient by testing activation of the kill switch against a range of tamoxifen metabolites, the PSC clone Construct 1 c.165, engineered to incorporate an exemplary modified ERT2 peptide-suicide protein fusion polypeptide construct (Table 3), was differentiated to myeloid progenitor cells as depicted in FIG. 13A. Differentiated cells were plated at 1×10^5 cells/cm^2 in an ultra-low attachment cell culture plate for further myeloid cell maturation. After 7 days in maturation medium, cells were collected and frozen down. For testing of TamCasp9 Safety Switch activation, myeloid cells were plated at 1.0×10^5 cells/cm^2 in a 96-well tissue culture plate with a 1:750 dilution of ViaStain AOPI Staining Solution (Nexcelom) in X-VIVO 15 Medium with 10 ng/mL GM-CSF. The kill switch was induced with varying concentrations of combination 4-OHT and Endoxifen treatment over 4 days and images were collected every 4 hours on the Incucyte SX5, with 12 hour timepoints plotted on a graph (Sartorius) (FIG. 14). Either 2.5 nM or 5 nM of Endoxifen was tested in combination with either 0.5 nM, 1 nM or 10 nM of 4-OHT. 100 nM Endoxifen was added as positive killing control as per FIG. 13E.

human iPSCs [2] = experiment: Conventional PCR (agarose gel) of knock-in iPSC pools, with or without 4-OHT; assay type: cell-based; conditions: iPSC pools treated with 1 nM 4-OHT
Protocol: (§1) Modified ERT2 peptide-suicide protein fusion polypeptide encoding constructs were delivered to human iPSCs via Nucleofection with a GAPDH targeting ribonucleoprotein (RNP) complex comprising of Cpf1 endonuclease and a single guide RNA (sgRNA) targeting the coding sequence of the GAPDH gene. The sgRNA comprised a sequence 5′ […] 3′ (SEQ ID NO: 60). Briefly, iPSCs were cultured in Essential 8 (E8) medium and maintained at 37° C. at 5% CO2 level between passages. Passages were done at 75 to 80% confluency. On the day of Nucleofection, iPSCs were thawed and immediately Nucleofected in Lonza P3 Primary Cell Nucleofection buffer. 7.5 μg of each plasmid construct (BRC00058-61) were Nucleofected into iPSCs using GAPDH Cpf1 RNP with LONZA 4D Nucleofector. The Nucleofected cells were then plated at 50,000 cells/cm^2 per well of a 6-well plate and grown in E8 medium (plus Rock inhibitor Y-27632 from Tocris) for 72 to 96 hours. Knock-in pools were screened for integration 7d post-Nucleofection using ddPCR, as well as conventional PCR.

iPSCs = experiment: Apoptosis induction in transfected iPSCs monitored by microscopy and Incucyte tracking; assay type: cell-based, human; conditions: 1 nM 4-OHT, up to two days; for apoptosis / cell killing: construct-transfected iPSCs
[3] = tested on: PSC-derived microglial precursor cells or myeloid progenitor cells; experiment: Apoptosis in PSC-derived microglial precursor cells or myeloid progenitor cells (Example 8); assay type: cell-based; conditions: cells from PSCs engineered with Table 3 constructs; 1, 5, 50 or 100 nM 4-OHT, or 5, 10, 50 or 100 nM Endoxifen
Protocol: To validate conservation of kill switch function after PSCs are differentiated to precursor cells or myeloid progenitor cells, PSCs engineered to incorporate the modified ERT2 peptide-suicide protein fusion polypeptide constructs outlined in Table 3 were differentiated into microglial precursor cells or myeloid progenitor cells. Thereafter PSC-derived microglial precursor cells or myeloid progenitor cells are treated with Endoxifen, 4-OHT or media alone and tested for incorporation of the modified ERT2 peptide-suicide protein fusion polypeptide in the STEL site.
To test function of the modified ERT2 peptide-suicide protein fusion polypeptide constructs in PSC-derived microglial precursor cells or myeloid progenitor cells, cells are cultured, then treated with either lnM, 5 nM, 50 nM, or 100 nM 4-OHT, or 5 nM, 10 nM, 50 nM, or 100 nM Endoxifen, before assessment of apoptosis.

iPSC clones = experiment: Apoptotic efficacy in individual construct clones treated with 4-OHT, Endoxifen or combinations; assay type: cell-based, human; conditions: for lowest effective concentration in 4-OHT-Endoxifen combination: clone Construct 1 c.165; for apoptotic (killing) efficacy: 24 hours
Protocol: Next, individual clones that were determined to be suitable for further assessments were evaluated for 24 hours in the presence of 4-OHT at two different concentrations.
Individual Construct 1-4 clones were also assessed for their responses to another tamoxifen metabolite, Endoxifen. Clones were evaluated for 24 hours in the presence of Endoxifen at three different concentrations.
Tamoxifen is a prodrug that is broken down into its active metabolites in vivo. To model predicted drug concentrations in a patient, the clone Construct 1 c.165 was treated with various combinations of 4-OHT and Endoxifen, wherein 1.25 nM Endoxifen was combined with a concentration of 4-OHT ranging between 0.125 nM to 1 nM (FIG. 12A). […] In the next evaluation, 0.125 nM 4-OHT was combined with either 0.625 or 1.25 nM Endoxifen (FIG. 12B).

[4] = tested on: PSC-derived dopaminergic neurons; experiment: Apoptosis in PSC-derived dopaminergic neurons (Example 9); assay type: cell-based; conditions: neurons from PSCs engineered with Table 3 constructs; 1, 5, 50 or 100 nM 4-OHT, or 5, 10, 50 or 100 nM Endoxifen
Protocol: To validate conservation of kill switch function after PSCs are differentiated to dopaminergic neurons, PSCs engineered to incorporate the modified ERT2 peptide-suicide protein fusion constructs outlined in Table 3 are differentiated into dopaminergic neurons. Thereafter PSC-derived dopaminergic neurons are treated with Endoxifen, 4-OHT or media alone and tested for incorporation of the modified ERT2 peptide-suicide protein fusion polypeptide construct in the STEL site.
To test function of the modified ERT2 peptide-suicide protein fusion polypeptides in PSC-derived dopaminergic neurons, dopaminergic neurons are cultured, then treated with either lnM, 5 nM, 50 nM, or 100 nM 4-OHT; or 5 nM, 10 nM, 50 nM, or 100 nM Endoxifen, before assessment of apoptosis.

human iPSCs [5] = experiment: Flow cytometric analysis of cleaved Caspase-3 in transfected iPSCs; assay type: cell-based; conditions: 1 nM 4-OHT, two-day treatment
From the text: In another set of assessments, Construct 1 or Construct 2 transfected iPSCs were harvested for flow cytometric analysis. The primary antibody used was an anti-human/mouse cleaved Caspase-3. The primary antibody detects human and mouse Caspase 3 cleaved at Asp175.

human iPSCs [6] = experiment: Junction GAPT2A ddPCR of knock-in iPSC pools for integration at GAPDH locus, with or without 4-OHT; assay type: cell-based; conditions: pooled iPSCs treated with 1 nM 4-OHT
Protocol: as §1
Whereas the integration dropped from 5.7% to 1% in Construct 1-transfected cell pools and from 4.5% to 0.7% in Construct 2-transfected cell pools when treated with 1 nM 4-OHT (FIG. 4A).

**Q.** With 4-hydroxytamoxifen [Construct 4-OHT] as the molecule, how does the “apoptosis in unedited cells” value [1] read?
**A.** Its value is “did not induce apoptosis”.

**Q.** And the “amount of cells carrying integration of kill-switch fusion sequences (PCR band intensity)” value (human iPSCs [2])?
**A.** Its value is “reduced the amount of cells that carried integration of the kill-switch fusion sequences at the GAPDH locus”.

**Q.** What about the “cell growth and density” value (iPSCs; unedited control cells) of the same molecule?
**A.** Its value is “no detectable effect on cell health and growth”.

**Q.** And the apoptosis [3]?
**A.** Its apoptosis is “resulted in apoptosis”.

**Q.** And the “lowest effective concentration in 4-OHT-Endoxifen combination” value (iPSC clones)?
**A.** Its value is 0.125 nM.

**Q.** What about the apoptosis [4] of the same molecule?
**A.** Its apoptosis is “resulted in apoptosis”.

**Q.** Which results are given for `CC/C(=C(\c1ccc(O)cc1)c1ccc(OCCNC)cc1)c1ccccc1` [Endoxifen, endoxifen, reference compound]?
**A.** apoptosis in unedited cells [1]: did not induce apoptosis; lowest effective concentration in 4-OHT-Endoxifen combination (iPSC clones): 1.25 nM

B1: Construct 1: GAPDH-targeting construct encoding modified ERT2 peptide-suicide protein fusion polypeptide ERT2*mut81-Casp9, SEQ ID NO: 44 (protein)
chain: AGDMRAANLWPSPLMIKRSKKNSLALSLTADQMVSALLDAEPPILYSEYDPTRPFSEASMMGLLTNLADRELVHMINWAKRVPGFVDLTLHDQVHLLECAWMEILMIGVVWRSMEHPVKLLFAPNLLLDRDQGKCVEGLVEIFDMLLATSSRFRMMNLQGEEFVCLKSIILLNSGVYTFLPSTLKSLEEKDHIHRVLDKITDTLIHLMAKAGLTLQQQHQRLAQLLLILSHIRHMSNKGMELLYSMKCKNVVPLYDLLLEAADAHRLHAPTSRGGASVEETDQSHLATAGSTSSHSLQKYYITGEAEGFPATGGGGSGGGGSGGGGSVDGFMDVGALESLRGNADLAYILSMEPCGHCLIINNVNFCRESGLRTRTGSNIDCEKLRRRFSSLHFMVEVKGDLTAKKMVLALLELARQDHGALDCCVVVILSHGCQASHLQFPGAVYGTDGCPVSVEKIVNIFNGTSCPSLGGKPKLFFIQACGGEQKDHGFEVASTSPEDESPGSNPEPDATPFQEGLRTFDQLDAISSLPTPSDIFVSYSTFPGFVSWRDPKSGSWYVETLDDIFEQWAHSEDLQSLLLRVANAVSVKGIYKQMPGCFNFLRKKLFFKTS
**Q.** B1 was tested. Which “apoptosis (kill switch activity)” value ([1]; 0, 1, 10 or 100 uM of Endoxifen over 3 days) did it give?
**A.** Its value is “induced apoptosis following endoxifen treatment”.

**Q.** And the “apoptosis / cell killing” value (iPSCs)?
**A.** Its value is “cells were completely killed by day 2”.

**Q.** And the “apoptotic (killing) efficacy” value (iPSC clones; 1 nM 4-OHT)?
**A.** The value was “displayed higher efficacy than Construct 2-4 clones; also recorded: highest apoptotic efficacy”.

**Q.** What about the “apoptotic (killing) efficacy” value (iPSC clones; 1 nM Endoxifen, compared to hygromycin control) of the same molecule?
**A.** Its value is “approached the level of apoptosis by hygromycin control at 24 hours”.

**Q.** And the “apoptosis (cleaved Caspase-3 flow cytometry)” value (human iPSCs [5])?
**A.** The value was “able to induce apoptosis in the majority of the cells”.

**Q.** And the “fusion polypeptide sequence integration (junction GAPT2A ddPCR)” value (“fusion polypeptide sequence integration” below) (human iPSCs [6])?
**A.** The value was 1%.

B2: Construct 4: GAPDH-targeting construct encoding fusion polypeptide ERT2*mut41-Casp9, SEQ ID NO: 50 (protein)
chain: B1 chain with L72I, M102L, L127V, Q132E, L139M, P181S
**Q.** Which “apoptosis / cell killing” value (iPSCs) does the source give for B2 here?
**A.** Its value is “cells were completely killed by day 2”.

**Q.** What about the “fusion polypeptide sequence integration” value (human iPSCs [6]) of the same molecule?
**A.** The value was 2.3%.

B3: Construct 2: GAPDH-targeting construct encoding fusion polypeptide ERT2*mut88-Casp9, SEQ ID NO: 46 (protein)
chain: B1 chain with M102L, Q132E, L139M, L242F
**Q.** How did the “apoptosis / cell killing” value (iPSCs) turn out when B3 was run?
**A.** The value was “did not induce apoptosis”.

**Q.** And the “apoptotic (killing) efficacy” value (iPSC clones; 5 nM 4-OHT)?
**A.** Its value is “able to induce apoptosis”.

**Q.** What about the “apoptotic (killing) efficacy” value (iPSC clones; 10 nM Endoxifen, compared to hygromycin kill control) of the same molecule?
**A.** Its value is “able to induce apoptosis”.

**Q.** And the “apoptosis (cleaved Caspase-3 flow cytometry)” value (human iPSCs [5])?
**A.** Its value is “failed to do so”.

**Q.** And the “fusion polypeptide sequence integration” value (human iPSCs [6])?
**A.** Its value is 0.7%.

B4: Construct 3: GAPDH-targeting construct encoding fusion polypeptide ERT2*mut63-Casp9, SEQ ID NO: 48 (protein)
chain: B1 chain with L72I, M102L, Q132E, P181S, M235A, L242F
**Q.** B4 was tested. Which “apoptosis / cell killing” value (iPSCs) did it give?
**A.** The value was “cells were completely killed by day 2”.

**Q.** And the “fusion polypeptide sequence integration” value (human iPSCs [6])?
**A.** The value was 1.4%.
